± gives the uncertainty stated by the source.
Assay: self-splicing fitness, log relative to wild type (ln ratio); higher = more splicing; Tetrahymena group I intron in knt gene, E. coli kanamycin selection, DiMSum; sequences stand for … in CUCUCU…GGAGGGAAAAGUUAUCAGGCAUGCACCUGGUAGCUAGUCUUUAAACCAAUAGAUUGCAUCGGUUUAAAAGGCAAGACCGUCAAAUUGCGGGAAAGGGGUCAACAGCCGUUCAGUACCAAGUCUCAGGGGAAACUUUGAGAUGGCCUUGCAAAGGGUAUGGUAAUAAGCUGACGGACAUGGUCCUAACCACGCAGCCAAGUCCUAAGUCAACAGAUCUUCUGUUGAUAUGGAUGCAGUUCACAGACUAAAUGUCGGUCGGGGAAGAUGUAUUCUUCUCAUAAGAUAUAGUCGGACCUCUCCUUAAUGGGAGCUAGCGGAUGAAGUGAUGCAACACUGGAGCCGCUGGGAACUAAUUUGUAUGCGAAAGUAUAUUGAUUAGUUUUGGAGUACUCGUGGUCG
Outline: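 DiMSum derived fitness as the error-weighted combination of fold changes across replicates, kanamycin versus no kanamycin, normalised to wild type. E. coli BL21(DE3) held the library, which randomised all eight P1ex-region intron nucleotides within the knt kanamycin-resistance gene on pET-22b(+). Six replicate transformations grew overnight at 37°C or 30°C on LB agar with or without 25 μg/mL kanamycin, also containing 100 μg/mL carbenicillin, 50 μM IPTG and 0.2% rhamnose, and pooled colonies were amplicon-sequenced on an Illumina HiSeq 2500.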

Row | Sequence | self-splicing fitness (ln) (30 °C) | self-splicing fitness (ln) (37 °C)
1 | ACCGAGCAAUAUUACGGCUU | -2.63 ± 0.12 | -1.14 ± 0.13
2 | UCGCAGCAAUAUUACGAGGA | -2.88 ± 0.19 | -0.7 ± 0.12
3 | ACAUAGCAAUAUUACGGCUU | -0.628 ± 0.09 | 0.133 ± 0.11
4 | AGUCAGCAAUAUUACGCAAG | -2.69 ± 0.26 | -1.28 ± 0.29
5 | AUUAAGCAAUAUUACGGGUC | -2.81 ± 0.21 | -3.49 ± 0.37
6 | GUCCAGCAAUAUUACGCAAG | -1.32 ± 0.12 | -1.28 ± 0.14
7 | CCUCAGCAAUAUUACGAUCA | -3.65 ± 0.22 | -2.96 ± 0.26
8 | CUUCAGCAAUAUUACGAAGC | -2.1 ± 0.17 | -2.43 ± 0.48
9 | UUGCAGCAAUAUUACGUGCG | -3.18 ± 0.16 | -1.43 ± 0.14
10 | UGUAAGCAAUAUUACGUAGG | -1.71 ± 0.15 | -0.712 ± 0.2
11 | CCUGAGCAAUAUUACGCGUU | -3.53 ± 0.29 | -3.12 ± 0.35
12 | CCCCAGCAAUAUUACGUCAC | -4.02 ± 0.23 | -2.93 ± 0.26
13 | AAUGAGCAAUAUUACGAGAA | -2.17 ± 0.23 | -2.03 ± 0.32
14 | GAUUAGCAAUAUUACGGAAC | -2.84 ± 0.36 | -1.7 ± 0.33
15 | GGGAAGCAAUAUUACGGCGG | -1.2 ± 0.14 | -1.94 ± 0.24
16 | ACCUAGCAAUAUUACGCUAA | -2.61 ± 0.23 | -1.32 ± 0.16
17 | GGUUAGCAAUAUUACGCAAA | -1.62 ± 0.39 | -2.21 ± 0.31
18 | CGAAAGCAAUAUUACGUAUU | -3.3 ± 0.15 | -1.51 ± 0.13
19 | GACGAGCAAUAUUACGGAUA | -2.52 ± 0.24 | -2.55 ± 0.44

Row | Sequence | self-splicing fitness (ln) (30 °C) | self-splicing fitness (ln) (37 °C)
20 | AAGCAGCAAUAUUACGGCUA | -0.14 ± 0.066 | 0.0975 ± 0.086
21 | CCGCAGCAAUAUUACGGAGA | -2.53 ± 0.17 | -2.36 ± 0.21
22 | UGAGAGCAAUAUUACGAGAG |  | -1.16 ± 0.36
23 | GCUUAGCAAUAUUACGCGUG | -1.74 ± 0.1 | -1.64 ± 0.11
24 | CGGAAGCAAUAUUACGAACU | -1.04 ± 0.1 | -0.0975 ± 0.12
25 | GGUGAGCAAUAUUACGUGUA | -2.8 ± 0.25 | -3.22 ± 0.3
26 | UCAUAGCAAUAUUACGCUGA | -2.32 ± 0.26 | -1.85 ± 0.28
27 | AGGGAGCAAUAUUACGUUCG | -3.18 ± 0.22 | -1.96 ± 0.23
28 | CUAGAGCAAUAUUACGUUAU | -3.29 ± 0.16 | -2.3 ± 0.23
29 | CAAAAGCAAUAUUACGGUGC | -3.76 ± 0.24 | -2.8 ± 0.24
30 | UGCUAGCAAUAUUACGUCCA | -0.211 ± 0.06 | -0.404 ± 0.09
31 | GCUUAGCAAUAUUACGAAUC | -0.244 ± 0.12 | -0.0191 ± 0.15
32 | GCGUAGCAAUAUUACGGAUU | -1.59 ± 0.13 | -0.574 ± 0.15
33 | CAGGAGCAAUAUUACGCGCC |  | -2.5 ± 0.26
34 | AUGGAGCAAUAUUACGAUUA | -1.13 ± 0.36 | 
35 | GAUCAGCAAUAUUACGCUUU | -1.02 ± 0.08 | -0.877 ± 0.11
36 | GUGUAGCAAUAUUACGAGUC | -1.74 ± 0.36 | -1.03 ± 0.3
37 | GUGGAGCAAUAUUACGGGGA | -3.12 ± 0.44 | -2.65 ± 0.4
38 | CCCUAGCAAUAUUACGCAAG | -3.65 ± 0.28 | -2.06 ± 0.23
